{"source": "paper PMC2774266", "about": "“Misguided Transcriptional Elongation Causes Mixed Lineage Leukemia” (PLoS Biology, 2009)", "binders": {"B1": {"name": "ENL (eleven nineteen leukemia protein), full-length two-hybrid fusion (natural protein, human, UniProt Q03111 1-559, looked up)", "chain": "MDNQCTVQVRLELGHRAQLRKKPTTEGFTHDWMVFVRGPEQCDIQHFVEKVVFWLHDSFPKPRRVCKEPPYKVEESGYAGFIMPIEVHFKNKEEPRKVCFTYDLFLNLEGNPPVNHLRCEKLTFNNPTTEFRYKLLRAGGVMVMPEGADTVSRPSPDYPMLPTIPLSAFSDPKKTKPSHGSKDANKESSKTSKPHKVTKEHRERPRKDSESKSSSKELEREQAKSSKDTSRKLGEGRLPKEEKAPPPKAAFKEPKMALKETKLESTSPKGGPPPPPPPPPRASSKRPATADSPKPSAKKQKKSSSKGSRSAPGTSPRTSSSSSFSDKKPAKDKSSTRGEKVKAESEPREAKKALEVEESNSEDEASFKSESAQSSPSNSSSSSDSSSDSDFEPSQNHSQGPLRSMVEDLQSEESDEDDSSSGEEAAGKTNPGRDSRLSFSDSESDNSADSSLPSREPPPPQKPPPPNSKVSGRRSPESCSKPEKILKKGTYDKAYTDELVELHRRLMALRERNVLQQIVNLIEETGHFNVTNTTFDFDLFSLDETTVRKLQSCLEAVAT"}}, "target": "endogenous CDK9 (cyclin dependent kinase 9, kinase of pTEFb) (human (endogenous in HEK293T, SEM and …, UniProt P50750 1-372))", "sequence (P50750 whole entry)": "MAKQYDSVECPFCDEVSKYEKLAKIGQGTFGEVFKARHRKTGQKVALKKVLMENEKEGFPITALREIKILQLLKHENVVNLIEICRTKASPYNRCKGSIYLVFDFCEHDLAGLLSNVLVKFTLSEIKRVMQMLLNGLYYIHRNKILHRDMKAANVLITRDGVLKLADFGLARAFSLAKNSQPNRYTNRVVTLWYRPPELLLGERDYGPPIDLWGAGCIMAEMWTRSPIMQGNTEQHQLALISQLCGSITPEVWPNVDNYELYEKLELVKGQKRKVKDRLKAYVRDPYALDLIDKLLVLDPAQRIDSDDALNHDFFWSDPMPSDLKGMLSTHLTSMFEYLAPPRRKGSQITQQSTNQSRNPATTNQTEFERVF", "assay": "cell-based or functional assay", "data": [{"binder": "B1", "values": [{"measurement": "luciferase in the RNA tethering assay (TAR/IIb reporter) of Rev-ENL in 293T cells, relative to Rev alone; contact with pTEFb indirect", "value": "~6", "unit": "fold"}]}]}
